Measurements reported in the Human Domainome abundance scans (Beltran et al. 2025).
± gives the uncertainty stated by the source.

B1: Histone-lysine N-methyltransferase SETD2, residues 2382 to 2430; numbered along this chain, Q9BYW2 (parent)
chain: SPPKPKTIVLPPNWKTARDPEGKIYYYHVITRQTQWDPPTWESPGDDAS

Variants of: B1
Assay: abundance fitness (aPCA) (normalised: wild type 0, dead -1); higher = more abundant; growth selection in yeast, the domain comes from the species named
Settings: Homo sapiens
SPPKPKTIVLPPNWKTARDPEGKIYYPHVITRQTQWDPPTWESPGDDAS gave an abundance fitness of -0.898 ± 0.089.
Work on SPPKPKTIVLPPNWKTARDPEGKIYYMHVITRQTQWDPPTWESPGDDAS yielded an abundance fitness of -0.339 ± 0.046.
Variant SPPKPKTIVMPPNWKTARDPEGKIYYYHVITRQTQWDPPTWESPGDDAS has an abundance fitness of -0.314 ± 0.1.
SPPKPKTIVLPPNWKTARDPEGKIYYYWVITRQTQWDPPTWESPGDDAS showed an abundance fitness of -1.05 ± 0.12.
For SPPKPKTIVLPPNWKTARDPEGKIYYYSVITRQTQWDPPTWESPGDDAS, the abundance fitness was -0.767 ± 0.065.
Work on SPPKPKTIVLPPNWKTARDPEGKIVYYHVITRQTQWDPPTWESPGDDAS yielded an abundance fitness of -0.395 ± 0.039.
Work on SPPKPKTIVLPPNWKTARDPEGKIKYYHVITRQTQWDPPTWESPGDDAS yielded an abundance fitness of -0.569 ± 0.089.
For SPPKPKTIVLPPNWKTARDPEGKIPYYHVITRQTQWDPPTWESPGDDAS, the abundance fitness was -0.784 ± 0.17.
With SPPKPKTIVLPPNWKTARDPEGKIGYYHVITRQTQWDPPTWESPGDDAS the abundance fitness was -0.844 ± 0.051.
Work on SPPKPKTIVLPPTWKTARDPEGKIYYYHVITRQTQWDPPTWESPGDDAS yielded an abundance fitness of -0.123 ± 0.078.
With SPPKPKTIVLPPYWKTARDPEGKIYYYHVITRQTQWDPPTWESPGDDAS the abundance fitness was 0.107 ± 0.075.
SPPKPKTIVLPPVWKTARDPEGKIYYYHVITRQTQWDPPTWESPGDDAS showed an abundance fitness of -0.523 ± 0.075.
Variant SPPKPKTIVLPPWWKTARDPEGKIYYYHVITRQTQWDPPTWESPGDDAS has an abundance fitness of -0.144 ± 0.097.
In the case of SPPKPKTIVLPPAWKTARDPEGKIYYYHVITRQTQWDPPTWESPGDDAS, the abundance fitness is reported as -0.581 ± 0.067.
SPPKPKTIVLPPNWKTARDPEGKIYYYHVITRQTLWDPPTWESPGDDAS showed an abundance fitness of -0.364 ± 0.065.
With SPPKPKTIVLPPNWKTARDPEGTIYYYHVITRQTQWDPPTWESPGDDAS the abundance fitness was -0.147 ± 0.044.
In the case of SPPKPKTIVLPPNWKTARDPEGKIYYYHVITRQTQWDPPTWESPGDDAE, the abundance fitness is reported as -0.279 ± 0.19.
SPPKPKTIVLPPNWKTAKDPEGKIYYYHVITRQTQWDPPTWESPGDDAS showed an abundance fitness of -0.072 ± 0.062.
Work on SPPKPKTIVLPPNWKTAADPEGKIYYYHVITRQTQWDPPTWESPGDDAS yielded an abundance fitness of -0.467 ± 0.07.
In the case of SPPKPKTGVLPPNWKTARDPEGKIYYYHVITRQTQWDPPTWESPGDDAS, the abundance fitness is reported as 0.037 ± 0.041.
SPPKPKTFVLPPNWKTARDPEGKIYYYHVITRQTQWDPPTWESPGDDAS gave an abundance fitness of -0.021 ± 0.086.
Work on SPPKPKTIVLPPNWKPARDPEGKIYYYHVITRQTQWDPPTWESPGDDAS yielded an abundance fitness of -0.341 ± 0.12.
In the case of SPPKPKTIVLPPNWKKARDPEGKIYYYHVITRQTQWDPPTWESPGDDAS, the abundance fitness is reported as -0.059 ± 0.092.
With SPPKPKTIVLPPNWKAARDPEGKIYYYHVITRQTQWDPPTWESPGDDAS the abundance fitness was 0.027 ± 0.041.
Variant SPPKPKTIVLPPNWKTARDPEGKGYYYHVITRQTQWDPPTWESPGDDAS has an abundance fitness of -0.578 ± 0.22.
SPWKPKTIVLPPNWKTARDPEGKIYYYHVITRQTQWDPPTWESPGDDAS gave an abundance fitness of 0.064 ± 0.068.
SPSKPKTIVLPPNWKTARDPEGKIYYYHVITRQTQWDPPTWESPGDDAS gave an abundance fitness of 0.281 ± 0.049.
SPNKPKTIVLPPNWKTARDPEGKIYYYHVITRQTQWDPPTWESPGDDAS gave an abundance fitness of 0.585 ± 0.097.
With SPHKPKTIVLPPNWKTARDPEGKIYYYHVITRQTQWDPPTWESPGDDAS the abundance fitness was 0.126 ± 0.12.
SPPKPKTIVLPPNWKTARDPEGKIYYYHVITRCTQWDPPTWESPGDDAS gave an abundance fitness of -0.251 ± 0.048.
In the case of SPPKPKTIVLPPNWKTARDPEGKIYYYHVITRKTQWDPPTWESPGDDAS, the abundance fitness is reported as -0.401 ± 0.12.
SPPKPKTIVLPPNWKTARDPEGKIYYYHVITRHTQWDPPTWESPGDDAS gave an abundance fitness of -0.578 ± 0.14.
Variant SPPKPKTIVLPPNWKTARDPLGKIYYYHVITRQTQWDPPTWESPGDDAS has an abundance fitness of -0.487 ± 0.035.
In the case of SPPKPKTIVLPPNWKTARDPTGKIYYYHVITRQTQWDPPTWESPGDDAS, the abundance fitness is reported as -0.229 ± 0.095.
SPPKPKTIVLPPNWKTARDPAGKIYYYHVITRQTQWDPPTWESPGDDAS showed an abundance fitness of -0.126 ± 0.065.
For SPPKPKTIVLPPNWKTARDPEGKIYYYHQITRQTQWDPPTWESPGDDAS, the abundance fitness was -0.018 ± 0.078.
Variant SPPKPKTIVLPPNWKTARDPEGKIYYYHGITRQTQWDPPTWESPGDDAS has an abundance fitness of -0.309 ± 0.039.
Work on SPPKPKTIVLPPNWKTARDPEGKIYYYHKITRQTQWDPPTWESPGDDAS yielded an abundance fitness of -0.255 ± 0.034.
For SPPKPKTIWLPPNWKTARDPEGKIYYYHVITRQTQWDPPTWESPGDDAS, the abundance fitness was -0.24 ± 0.07.
With SPPKPKTIFLPPNWKTARDPEGKIYYYHVITRQTQWDPPTWESPGDDAS the abundance fitness was 0.049 ± 0.086.
In the case of SPPKPKTIVLPPNWKTARDPEGKIYYYHVITRQTQWDPPTWEWPGDDAS, the abundance fitness is reported as -0.23 ± 0.088.
SPPKPKTIVLPPNWKTARDPEGKIYYYHVITRQTQWDPPTWEVPGDDAS showed an abundance fitness of -0.045 ± 0.055.
SPPKPKTIVLPPNWKTARDPEGKIYYYHVITRQTQWDPPTWEFPGDDAS gave an abundance fitness of -0.375 ± 0.071.
SPPKPKTIVLPPNWKTARDPEGKIYYYHVITRQTQWDPPTWEDPGDDAS showed an abundance fitness of 0.078 ± 0.075.
For SPPKPKTIVLPPNWKTARDPEGKIYYYHVITRQTQWDPPTWESPIDDAS, the abundance fitness was 0.125 ± 0.1.
Variant SPPKPKTIVLPPNWKTARDPEGKIYYYHVITRQTQWDPPTWESPPDDAS has an abundance fitness of 0.233 ± 0.035.
Work on SPPKPKTIVLPPNWKTARDPEGKIYYYHVITRQTQWDPPTWESPHDDAS yielded an abundance fitness of -0.73 ± 0.31.
In the case of SPPKPKTIVLPPNWKTARDPEGKIYYYHVITRQTQWDPPTWESPGDDGS, the abundance fitness is reported as -0.014 ± 0.054.
For SPPKPKTIVLPPNWKTARDPEGKIYYYHVITRQTQWDPPTWESPGDDES, the abundance fitness was 0.1 ± 0.036.
SPPKPKTIVLPPNWKTARDPEGKIYYYHVITRQTQWDPPTWESPGDDFS showed an abundance fitness of -0.094 ± 0.068.
SPPKPKTIVLPPNWKTARDPEGKIYYYHVITRQTQWDPPTWESPGDDVS gave an abundance fitness of -0.164 ± 0.057.
With SPPKPKTIVLPPNWKTARDPEGKIYYYHVITLQTQWDPPTWESPGDDAS the abundance fitness was -0.315 ± 0.039.
Variant SPPKPKTIVLPPNWKTARDPEGKIYYYHVITSQTQWDPPTWESPGDDAS has an abundance fitness of -0.363 ± 0.058.
